Assay results: publication PMC4643140, “Low-Temperature-Induced Expression of Rice Ureidoglycolate Amidohydrolase is Mediated by a C-Repeat/Dehydration-Responsive Element that Specifically Interacts with Rice C-Repeat-Binding Factor 3”

Biological target: GST-OsCBF3 (Oryza sativa (rice), UniProt Q64MA1 1-238)
Experiment: EMSA; 20 fmol probe, 1 ug protein; unlabeled E2 (2 pmol) competes; 20 uL reactions, Light-Shift Chemiluminescent EMSA Kit per manufacturer; buffer, salt, pH and temperature not stated
Conditions: protein: recombinant; tags: N-terminal GST (pGEX-4T-1); label: biotin on probe; blunt

Chain of GST-OsCBF3 (Q64MA1 whole entry): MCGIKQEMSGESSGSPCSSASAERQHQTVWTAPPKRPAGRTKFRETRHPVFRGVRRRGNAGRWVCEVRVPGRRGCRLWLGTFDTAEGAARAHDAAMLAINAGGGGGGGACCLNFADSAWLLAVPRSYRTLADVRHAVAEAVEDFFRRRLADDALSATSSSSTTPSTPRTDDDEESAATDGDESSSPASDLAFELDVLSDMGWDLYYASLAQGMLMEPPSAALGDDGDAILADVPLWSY

B1: E2 (dsDNA)
DNA 1: AGCGTAGCTGCGGCGGAGAGCTCGCCGCCGACCCGCCCGGAGATTGGTTGCTTGCGCTG
DNA 2: CAGCGCAAGCAACCAATCTCCGGGCGGGTCGGCGGCGAGCTCTCCGCCGCAGCTACGCT
binding result: binds
